{
  "source": "patent US20210030857A1",
  "about": "(NGM BIOPHARMACEUTICALS, published 2021)",
  "key": {"[1]": {"target": "T1, human beta klotho mutant H657A on HEK-293T cells (human, UniProt Q86Z14 1-1044)", "T1 sequence": "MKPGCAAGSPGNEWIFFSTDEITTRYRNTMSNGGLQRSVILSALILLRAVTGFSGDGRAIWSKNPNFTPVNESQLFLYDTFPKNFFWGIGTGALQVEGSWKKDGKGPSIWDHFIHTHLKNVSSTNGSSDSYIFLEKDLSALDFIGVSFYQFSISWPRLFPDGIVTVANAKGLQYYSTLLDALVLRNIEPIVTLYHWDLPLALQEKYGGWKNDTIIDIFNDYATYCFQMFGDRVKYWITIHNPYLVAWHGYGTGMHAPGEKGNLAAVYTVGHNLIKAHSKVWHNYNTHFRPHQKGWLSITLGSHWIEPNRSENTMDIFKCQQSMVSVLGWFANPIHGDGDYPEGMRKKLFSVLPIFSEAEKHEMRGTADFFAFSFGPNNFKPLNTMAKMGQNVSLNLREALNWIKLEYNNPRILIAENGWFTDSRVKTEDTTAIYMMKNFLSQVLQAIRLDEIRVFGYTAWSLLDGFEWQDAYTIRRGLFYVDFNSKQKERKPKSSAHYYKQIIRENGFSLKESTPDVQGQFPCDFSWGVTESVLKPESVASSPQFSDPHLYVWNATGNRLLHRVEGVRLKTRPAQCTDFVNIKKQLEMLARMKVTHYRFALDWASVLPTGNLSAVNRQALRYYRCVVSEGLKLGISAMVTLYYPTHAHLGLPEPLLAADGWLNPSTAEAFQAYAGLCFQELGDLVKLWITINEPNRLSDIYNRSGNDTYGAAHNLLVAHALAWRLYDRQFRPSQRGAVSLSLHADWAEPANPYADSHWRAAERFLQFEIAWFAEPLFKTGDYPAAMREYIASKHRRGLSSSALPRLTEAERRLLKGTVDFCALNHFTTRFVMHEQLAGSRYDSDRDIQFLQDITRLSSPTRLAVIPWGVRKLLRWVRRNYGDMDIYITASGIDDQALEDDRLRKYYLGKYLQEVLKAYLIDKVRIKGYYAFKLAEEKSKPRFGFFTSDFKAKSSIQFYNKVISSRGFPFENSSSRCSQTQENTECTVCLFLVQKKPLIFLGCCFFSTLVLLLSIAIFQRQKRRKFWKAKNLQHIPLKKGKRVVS", "assay": "shotgun alanine mutagenesis, FACS on HEK-293T cells, antibody 0.5 µg/ml", "procedure": "(§1) In order to further identify specific binding residues within human beta klotho KL2 domain, shotgun mutagenesis was used to separately mutate individual residues of the KL2 domain of human beta klotho to an alanine (e.g., residues F508A-L1008A). […] For example, screening of the beta klotho mutant proteins was conducted at a concentration of 0.5 μg/ml for the humanized 5H23 antibody, 1.0 μg/ml for the Fab fragment, and 2.0 μg/ml for a positive control polyclonal anti-beta klotho antibodies.\nThe resulting mapping identified three specific binding residues, H657, Y701 and R703, which were negative for binding by the humanized 5H23 antibody, but were positive for the control polyclonal anti-beta klotho antibodies. These residues represented amino acids whose side changes made the highest energetic contributions to the antibody-epitope interation as shown in Table 31. The locations of the three identified residues were modeled by showing them (dark spheres) at the equivalent positions on human cytosolic beta-glucosidase (PDB ID #2JFE; Tribolo et al., J. Mol. Biol. 370, 964-975 (2007)), identified by BLAST alignment of the two proteins as shown in FIG. 6."}, "[2]": {"target": "T2, human beta klotho mutant R703A on HEK-293T cells (human, UniProt Q86Z14 1-1044)", "T2 sequence": "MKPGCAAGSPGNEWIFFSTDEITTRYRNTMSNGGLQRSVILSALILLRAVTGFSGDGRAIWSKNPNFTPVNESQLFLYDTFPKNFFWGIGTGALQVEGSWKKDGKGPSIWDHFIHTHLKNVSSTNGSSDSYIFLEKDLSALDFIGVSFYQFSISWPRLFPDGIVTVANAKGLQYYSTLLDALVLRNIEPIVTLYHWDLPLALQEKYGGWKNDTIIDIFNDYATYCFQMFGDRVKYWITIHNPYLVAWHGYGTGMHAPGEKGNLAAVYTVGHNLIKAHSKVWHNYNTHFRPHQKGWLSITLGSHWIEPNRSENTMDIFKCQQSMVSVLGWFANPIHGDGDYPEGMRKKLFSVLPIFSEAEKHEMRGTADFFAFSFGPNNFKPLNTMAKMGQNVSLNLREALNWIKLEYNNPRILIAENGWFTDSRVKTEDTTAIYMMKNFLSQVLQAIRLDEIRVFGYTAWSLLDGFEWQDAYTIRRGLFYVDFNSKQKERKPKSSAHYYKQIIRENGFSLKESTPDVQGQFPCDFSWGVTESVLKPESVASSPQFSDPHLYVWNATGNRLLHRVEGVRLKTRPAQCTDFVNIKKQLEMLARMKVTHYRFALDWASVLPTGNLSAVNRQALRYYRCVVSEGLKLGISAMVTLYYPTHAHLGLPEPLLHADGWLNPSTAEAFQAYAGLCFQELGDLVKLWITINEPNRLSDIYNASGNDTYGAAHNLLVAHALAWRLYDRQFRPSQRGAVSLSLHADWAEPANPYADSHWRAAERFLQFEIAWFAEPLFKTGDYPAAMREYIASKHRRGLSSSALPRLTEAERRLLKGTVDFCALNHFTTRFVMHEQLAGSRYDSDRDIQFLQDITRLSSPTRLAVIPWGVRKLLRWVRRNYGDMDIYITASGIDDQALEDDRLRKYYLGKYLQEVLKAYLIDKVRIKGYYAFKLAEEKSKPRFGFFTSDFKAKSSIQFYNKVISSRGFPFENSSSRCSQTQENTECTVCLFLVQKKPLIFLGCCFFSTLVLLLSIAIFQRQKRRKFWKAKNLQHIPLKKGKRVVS", "assay": "shotgun alanine mutagenesis, FACS on HEK-293T cells", "procedure": "as §1"}},
  "data": [
    {"binder": "humanized 5H23 antibody (VH SEQ ID NO: 271 and VL SEQ ID NO: 276) (antibody, V domains shown, also called h5H23; h5H23 (Prep 1)) VH: QVQLQQSGAEVKKPGASVKVSCKASGYTFTSYDINWVRQAPGQGLEWIGWIYPGDGSTKYNEKFKGKATITRDTSASTAYMELSSLRSEDTAVYFCARSDYYGSRSFAYWGQGTLVTVSS VL: DIVMTQSPDSLAVSLGERATINCRASKSVSTSGYVYMHWYQQKPGQPPKLLIYLASYLESGVPDRFSGSGSGTDFTLTISSVQAEDVAVYYCQHSRDLTFPFGGGTKLEIK", "values": [
      {"measurement": "Binding Reactivity (% WT)", "setting": "[1]", "value": 16.9, "unit": "% WT"},
      {"measurement": "binding result", "setting": "[2]", "value": "no binding (tested: 0.5 µg/ml)"}
    ]}
  ]
}
